Data taken from paper PMC6305486.

Columns and labels:
[1] = target: GST-fused e5-FtsB_(25–103) E68A/k5-FtsL_(64–121) complex (E. coli) (UniProt P0A6S5); assay: BLI; BLItz; GST-fused FtsB proteins or GST-e5-FtsB/k5-FtsL complexes immobilised on AR2G biosensor by amine coupling; FtsQ_(50–276) (WT or Y248A) in solution, 0.1–80 μM; running buffer 20 mM Tris-HCl pH 8.0, 200 mM NaCl; equilibrium analysis of points at 100 s
[2] = target: GST-fused e5-FtsB_(25–103)/k5-FtsL_(64–121) complex (WT) (E. coli) (UniProt P0A6S5); assay: as above
[3] = target: e5-FtsB_(25–103)/k5-FtsL_(64–121) complex (E. coli) (UniProt P0A6S5); assay: SEC; analytical gel filtration, Superdex 200 10/300 GL, buffer B (20 mM Tris-HCl pH 8.0, 200 mM NaCl), 0.5 mL/min; low concentrations (6.8–22.2 μM); apparent Stokes radius compared with radii calculated from models
[4] = target: e5-FtsB_(25–103)/k5-FtsL_(64–121) complex (E. coli) (UniProt P0A6S5); assay: SEC; analytical gel filtration, Superdex 200 10/300 GL, buffer B (20 mM Tris-HCl pH 8.0, 200 mM NaCl), 0.5 mL/min; high concentrations (101–370 μM); apparent Stokes radius compared with radii calculated from models
FtsQ_(50–276) = FtsQ_(50–276) (UniProt P06136); assay: BLI; conditions: GST-e5-FtsB (mutant) in complex with k5-FtsL immobilized; FtsQ analyte 0-80 µM; parent: 0.24 ± 0.01
Sequence of FtsQ_(50–276) (UniProt P06136) (P06136 whole entry, looked up, tested part not stated): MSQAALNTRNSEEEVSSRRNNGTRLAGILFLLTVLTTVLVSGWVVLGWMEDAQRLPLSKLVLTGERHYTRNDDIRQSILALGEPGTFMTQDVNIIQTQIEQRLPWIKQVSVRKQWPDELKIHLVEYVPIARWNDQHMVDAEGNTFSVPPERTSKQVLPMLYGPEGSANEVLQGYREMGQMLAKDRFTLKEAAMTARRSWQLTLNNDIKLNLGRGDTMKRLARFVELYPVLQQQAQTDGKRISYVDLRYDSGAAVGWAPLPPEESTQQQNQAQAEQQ

Sequence of FtsQ_(50–276) (from UniProt P06136 50-276) (domain or fragment) (P06136 50-276): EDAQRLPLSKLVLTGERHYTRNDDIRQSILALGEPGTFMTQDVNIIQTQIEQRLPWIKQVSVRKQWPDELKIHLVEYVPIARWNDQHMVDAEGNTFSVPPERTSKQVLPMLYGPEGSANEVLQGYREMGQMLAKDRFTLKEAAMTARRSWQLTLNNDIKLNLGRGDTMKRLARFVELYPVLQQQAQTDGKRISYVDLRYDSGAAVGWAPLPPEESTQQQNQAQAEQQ

“FtsQ_(50–276) (from UniProt P06136 50-276) (domain or fragment)” gave a fold reduction of affinity against WT [1] of 10 fold, a Kd [2] of 0.24 µM and a stoichiometry N (FtsQ:FtsB:FtsL ratio (1:1:1)) [3] of 1. For the same substance, the stoichiometry N (FtsQ:FtsB:FtsL ratio (2:2:2)) [3] was 1, the stoichiometry N (FtsQ:FtsB:FtsL ratio (1:1:1)) [4] was 1 and the stoichiometry N (FtsQ:FtsB:FtsL ratio (2:2:2)) [4] was 1.

In the case of “GST-fused e5-FtsB_(25–103)/k5-FtsL_(64–121) complex (WT) (from UniProt P0A6S5;P0AEN4) E69R”, the Kd (FtsQ_(50–276)) is reported as > 100 µM.

“GST-fused e5-FtsB_(25–103)/k5-FtsL_(64–121) complex (WT) (from UniProt P0A6S5;P0AEN4) E82R” was tested, and the Kd (FtsQ_(50–276)) was > 100 µM.

In the case of “GST-fused e5-FtsB_(25–103)/k5-FtsL_(64–121) complex (WT) (from UniProt P0A6S5;P0AEN4) R72E”, the Kd (FtsQ_(50–276)) is reported as > 100 µM.
